Data on 39 molecules can be found in patent US20200199241A1 (Chugai, published 2020).

Positions count from the first letter of the chain named. Names may count otherwise.

A word on the Kd: it is the free concentration of one partner at which half of the binding sites on the other are occupied at equilibrium, for simple one-to-one binding. Read a high Kd as lower affinity.

First the molecules themselves.
B1: IgG1-F439 (antibody)
heavy: QVQLQESGPGLVKPSETLSLTCAVSGHSISHDHAWSWVRQPPGEGLEWIGFISYSGITNYNPSLQGRVTISRDNSKNTLYLQMNSLRAEDTAVYYCARSLARTTAMDYWGEGTLVTVSSASTKGPSVFPLAPSSKSTSGGTAALGCLVKDYFPEPVTVSWNSGALTSGVHTFPAVLQSSGLYSLSSVVTVPSSSLGTQTYICNVNHKPSNTKVDKKVEPKSCDKTHTCPPCPAPELLGGPSVFLFPPKPKDTLMISRTAEVTCVVVDVSHEDPEVKFNWYVDGVEVHNAKTKPREEQYNSTYRVVSVLQVLHQDWLNGKEYKCKVSNKALPAPIEKTISKAKGQPREPQVYTLPPSRDELTKNQVSLTCLVKGFYPSDIAVEWESNGQPENNYKTTPPVLDSDGSFFLYSKLTVDKSRWQQGNVFSCSVFHEALHYHYTQKSLSLSP
light: not shown
notes: EU numbering; copies: 2 + 2
B2: IgG1-F453 (antibody)
heavy: B1 heavy with A259N, Q309A, F430L
light: not shown
notes: EU numbering; copies: 2 + 2
B3: IgG1-F470 (antibody)
heavy: B1 heavy with T258E, A259T, Q309T, V310P, N327G, F430L
light: not shown
notes: EU numbering; copies: 2 + 2
B4: IgG1-F481 (antibody)
heavy: B1 heavy with A259T, F430M
light: not shown
notes: EU numbering; copies: 2 + 2
B5: IgG1-F476 (antibody)
heavy: B1 heavy with A259V, E384A, F430L
light: not shown
notes: EU numbering; copies: 2 + 2
B6: IgG1-F440 (antibody)
heavy: B1 heavy with A259V, N288E, Q313A, N327G, F430L
light: not shown
notes: EU numbering; copies: 2 + 2
B7: IgG1-F482 (antibody)
heavy: B1 heavy with A259V, N327G, F430M
light: not shown
notes: EU numbering; copies: 2 + 2
B8: IgG1-F457 (antibody)
heavy: B1 heavy with S241K, A259V, Q309T, V310P, F430L
light: not shown
notes: EU numbering; copies: 2 + 2
B9: IgG1-F446 (antibody)
heavy: B1 heavy with Q309A, Q313H, F430L
light: not shown
notes: EU numbering; copies: 2 + 2
B10: IgG1-F458 (antibody)
heavy: B1 heavy with A259V, V310P, N327G, F430L
light: not shown
notes: EU numbering; copies: 2 + 2
B11: IgG1-F441 (antibody)
heavy: B1 heavy with Q309T, Q313A, F430L
light: not shown
notes: EU numbering; copies: 2 + 2
B12: IgG1-F456 (antibody)
heavy: B1 heavy with A259V
light: not shown
notes: EU numbering; copies: 2 + 2
B13: IgG1-F455 (antibody)
heavy: B1 heavy with A259V, F430Y
light: not shown
notes: EU numbering; copies: 2 + 2
B14: IgG1-F443 (antibody)
heavy: B1 heavy with Q313A, F430L
light: not shown
notes: EU numbering; copies: 2 + 2
B15: IgG1-F447 (antibody)
heavy: B1 heavy with N288E, F430L
light: not shown
notes: EU numbering; copies: 2 + 2
B16: IgG1-F463 (antibody)
heavy: B1 heavy with Q309A, V310P, F430L
light: not shown
notes: EU numbering; copies: 2 + 2
B17: IgG1-F465 (antibody)
heavy: B1 heavy with A259V, N288E, N327G, F430L
light: not shown
notes: EU numbering; copies: 2 + 2
B18: IgG1-F472 (antibody)
heavy: B1 heavy with A259T, Q309T, V310P, N327G, P389E, F430L
light: not shown
notes: EU numbering; copies: 2 + 2
B19: IgG1-F474 (antibody)
heavy: B1 heavy with A259T, Q309T, V310P, L311R, N327G, F430L
light: not shown
notes: EU numbering; copies: 2 + 2
B20: IgG1-F471 (antibody)
heavy: B1 heavy with A259T, Q309T, V310P, N327G, E384A, F430L
light: not shown
notes: EU numbering; copies: 2 + 2
B21: IgG1-F449 (antibody)
heavy: B1 heavy with S241K, M254Y, A259P, D272F, Q309P, N327G, F430Y
light: not shown
notes: EU numbering; copies: 2 + 2
B22: IgG1-F451 (antibody)
heavy: B1 heavy with A259S, Q309A, F430L
light: not shown
notes: EU numbering; copies: 2 + 2
B23: IgG1-F452 (antibody)
heavy: B1 heavy with A259M, Q309A, F430L
light: not shown
notes: EU numbering; copies: 2 + 2
B24: IgG1-F477 (antibody)
heavy: B1 heavy with A259V, P389E, F430L
light: not shown
notes: EU numbering; copies: 2 + 2
B25: IgG1-F475 (antibody)
heavy: B1 heavy with T258E, A259V, F430L
light: not shown
notes: EU numbering; copies: 2 + 2
B26: IgG1-F442 (antibody)
heavy: B1 heavy with Q309T, Q313H, F430L
light: not shown
notes: EU numbering; copies: 2 + 2
B27: IgG1-F454 (antibody)
heavy: B1 heavy with A259I, Q309A, F430L
light: not shown
notes: EU numbering; copies: 2 + 2
B28: IgG1-F480 (antibody)
heavy: B1 heavy with A259L, Q309T, V310P, F430M
light: not shown
notes: EU numbering; copies: 2 + 2
B29: IgG1-F459 (antibody)
heavy: B1 heavy with A259V, V310P, Q313A, N327G, F430L
light: not shown
notes: EU numbering; copies: 2 + 2
B30: IgG1-F444 (antibody)
heavy: B1 heavy with Q309A, Q313A, F430L
light: not shown
notes: EU numbering; copies: 2 + 2
B31: IgG1-F473 (antibody)
heavy: B1 heavy with A259T, Q309T, V310P, L311P, N327G, F430L
light: not shown
notes: EU numbering; copies: 2 + 2
B32: IgG1-F464 (antibody)
heavy: B1 heavy with V310P, F430L
light: not shown
notes: EU numbering; copies: 2 + 2
B33: IgG1-F448 (antibody)
heavy: B1 heavy with N288E, Q309A, F430L
light: not shown
notes: EU numbering; copies: 2 + 2
B34: IgG1-F467 (antibody)
heavy: B1 heavy with T258E, A259T, Q309T, F430M
light: not shown
notes: EU numbering; copies: 2 + 2
B35: IgG1-F466 (antibody)
heavy: B1 heavy with T258E, A259V, Q309T, F430M
light: not shown
notes: EU numbering; copies: 2 + 2
B36: IgG1-F468 (antibody)
heavy: B1 heavy with S241K, A259T, Q309T, V310P, F430L
light: not shown
notes: EU numbering; copies: 2 + 2
B37: IgG1-F483 (antibody)
heavy: B1 heavy with A259V, Q313A, F430M
light: not shown
notes: EU numbering; copies: 2 + 2
B38: IgG1-F460 (antibody)
heavy: B1 heavy with A259V, Q309A, V310P, N327G, F430L
light: not shown
notes: EU numbering; copies: 2 + 2
B39: IgG1-F469 (antibody)
heavy: B1 heavy with A259T, Q309T, V310P, N327G, F430L
light: not shown
notes: EU numbering; 'N3250' read as N325G; copies: 2 + 2
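Also: antibodies captured on a Protein L sensor chip with human FcRn injected as analyte, KD calculated from fitted association and dissociation rate constants.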

T1 sequence (chain, as listed by the source limits assumed, chain 1 of 2): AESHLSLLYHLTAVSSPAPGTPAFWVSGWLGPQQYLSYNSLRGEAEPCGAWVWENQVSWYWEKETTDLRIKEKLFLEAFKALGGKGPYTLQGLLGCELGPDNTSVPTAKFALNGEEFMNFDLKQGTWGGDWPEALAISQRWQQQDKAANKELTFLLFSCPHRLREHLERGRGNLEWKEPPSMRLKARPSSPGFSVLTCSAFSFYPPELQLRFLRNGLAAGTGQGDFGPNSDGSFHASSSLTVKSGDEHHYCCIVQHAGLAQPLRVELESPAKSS
T1 sequence (P61769 21-119 limits assumed, chain 2 of 2): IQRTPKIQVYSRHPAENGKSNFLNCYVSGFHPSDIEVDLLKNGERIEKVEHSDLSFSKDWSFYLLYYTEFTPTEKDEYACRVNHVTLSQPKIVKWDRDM

The test addresses T1, human FcRn (soluble human FcRn complexed with β2-microglobulin) (human, UniProt P61769 21-119, limits assumed).
T1 construct: also called hFcRn
As to the kind of experiment: SPR, pH 7.0. (In general: Surface plasmon resonance follows binding to a sensor surface in real time, without labels.)
Molecule B1 displayed a Kd of 40 nM.

The molecule B2 came in with a Kd of 78 nM. Against the preceding molecule, the Kd is about 1.9-fold higher.

B3: the equilibrium dissociation constant (Kd) was 54 nM.

As to B4, the affinity, expressed as Kd, was 56 nM.

For B5, the affinity, expressed as Kd, was 55 nM.

Molecule B6 registered a Kd of 15 nM.

B7 came in with a dissociation constant (Kd) of 70 nM.

The molecule B8 showed a Kd of 40 nM. Compared with the last molecule, the Kd is about 1.8-fold lower.

Consider B9, for which binding was characterised by a dissociation constant (Kd) of 110 nM.

B10 registered a dissociation constant Kd of 15 nM.

For B11, the dissociation constant (Kd) stood at 180 nM.

Take B12: the Kd turned out to be 34 nM.

On to B13, for which the Kd turned out to be 27 nM.

B14 yielded a Kd of 55 nM.

In the case of B15, the affinity, expressed as Kd, was 14 nM.

B16 displayed a Kd of 130 nM.

For the molecule B17, binding was characterised by a dissociation constant (Kd) of 21 nM.

The molecule B18 displayed a Kd of 54 nM. This Kd is about 2.6-fold higher than that of the molecule before.

With B19, binding was characterised by a dissociation constant (Kd) of 350 nM.

On to B20, for which the equilibrium dissociation constant (Kd) worked out at 66 nM.

In the case of B21, binding was characterised by a dissociation constant (Kd) of 570 nM. Compared with the last molecule, the Kd is about 8.6-fold higher.

For the molecule B22, the equilibrium dissociation constant (Kd) was 100 nM.

As for B23, binding was characterised by a dissociation constant (Kd) of 140 nM.

In the case of B24, the Kd turned out to be 43 nM.

Turning to B25, binding was characterised by a dissociation constant (Kd) of 43 nM.

B26 displayed a Kd of 200 nM.

The molecule B27 had a Kd of 96 nM. Compared with the last molecule, the Kd is about 2.1-fold lower.

In the case of B28, the Kd came out at 39 nM.

B29 displayed a dissociation constant Kd of 13 nM.

Molecule B30 had a Kd of 140 nM. This Kd lies about 11-fold higher than the previous one.

With B31, the affinity, expressed as Kd, was 450 nM.

For B32, binding was characterised by a dissociation constant (Kd) of 55 nM.

B33 registered a Kd of 53 nM.

With B34, the Kd was 570 nM.

B35 displayed a Kd of 350 nM. This Kd is about 1.6-fold lower than that of the molecule before.

Molecule B36 gave a Kd of 57 nM.

As for B37, binding was characterised by a dissociation constant (Kd) of 57 nM.

As for B38, the Kd worked out at 47 nM.

For the molecule B39, binding was characterised by a dissociation constant (Kd) of 56 nM. This Kd and that of the molecule before are within 1.5-fold of each other.
